Data as given in patent publication US20200115430A1 (I2O THERAPEUTICS, published 2020).
Starred links: 1 amine or outer side, 2 acyl side, 3 side chain; linkers in the order of their positions; H or OH if unused. Positions of bridges follow the written chain, without caps; N, C: chain ends. Non-standard residues stand in square brackets, D forms with d. Groups on a side chain read outwards from the residue. Primed or numbered codes have the meaning given here. No end group written: not given here. *: point of attachment. dpeg″ = —[CO(CH2)O(CH2)2O(CH2)NH]— spacer unit, O=C(COCCOCN[*:1])[*:2]; C20 diacid = O=C(O)CCCCCCCCCCCCCCCCCCC(=O)*; C18 diacid = O=C(O)CCCCCCCCCCCCCCCCC(=O)*; γGlu = O=C(O)[C@H](CCC(=O)[*:2])N[*:1]; Stearoyl = CCCCCCCCCCCCCCCCCC(=O)*; Palmitoyl = CCCCCCCCCCCCCCCC(=O)*

T1: human calcitonin receptor (human, UniProt P30988 25-474)
T1 sequence (looked up): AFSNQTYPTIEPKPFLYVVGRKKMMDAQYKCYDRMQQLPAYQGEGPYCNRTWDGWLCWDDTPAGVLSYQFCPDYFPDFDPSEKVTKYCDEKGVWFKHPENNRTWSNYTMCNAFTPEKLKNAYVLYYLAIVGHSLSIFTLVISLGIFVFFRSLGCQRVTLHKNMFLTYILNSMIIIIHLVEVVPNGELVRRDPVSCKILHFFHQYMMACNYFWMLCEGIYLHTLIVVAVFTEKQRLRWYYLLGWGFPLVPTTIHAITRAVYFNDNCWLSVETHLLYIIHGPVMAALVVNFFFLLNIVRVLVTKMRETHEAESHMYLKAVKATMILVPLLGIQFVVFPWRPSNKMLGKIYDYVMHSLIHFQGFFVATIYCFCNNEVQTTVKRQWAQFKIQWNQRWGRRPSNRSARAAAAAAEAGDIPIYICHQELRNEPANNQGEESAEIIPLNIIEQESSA

T2: human amylin 3 receptor (human, UniProt P30988 25-474; O60896 24-148)
T2 sequence (looked up) 1: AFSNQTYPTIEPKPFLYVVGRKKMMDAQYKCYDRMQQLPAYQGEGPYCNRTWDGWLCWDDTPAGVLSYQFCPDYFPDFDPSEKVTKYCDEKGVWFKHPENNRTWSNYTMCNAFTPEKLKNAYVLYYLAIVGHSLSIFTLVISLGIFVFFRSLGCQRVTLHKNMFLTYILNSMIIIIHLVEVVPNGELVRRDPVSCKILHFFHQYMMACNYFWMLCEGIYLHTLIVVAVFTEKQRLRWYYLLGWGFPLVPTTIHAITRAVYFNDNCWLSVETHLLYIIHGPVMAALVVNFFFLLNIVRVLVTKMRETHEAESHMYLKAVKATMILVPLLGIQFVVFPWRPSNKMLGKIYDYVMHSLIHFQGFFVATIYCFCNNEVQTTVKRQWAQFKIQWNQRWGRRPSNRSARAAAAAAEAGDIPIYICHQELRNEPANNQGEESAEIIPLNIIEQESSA
T2 sequence (looked up) 2: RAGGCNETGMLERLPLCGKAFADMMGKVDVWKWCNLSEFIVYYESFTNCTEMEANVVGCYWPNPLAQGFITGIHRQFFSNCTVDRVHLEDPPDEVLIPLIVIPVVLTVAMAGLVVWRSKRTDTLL

B1: Compound A64 (peptide)
peptide: K([γGlu-γGlu-C20 diacid])CNTSTCATQRLANELHKSSNNFGPILPPTKVGSETY-NH2
modifications: disulfide 2-7; N-terminus assumed
SMILES: CC[C@H](C)[C@H](NC(=O)[C@@H]1CCCN1C(=O)CNC(=O)[C@H](Cc1ccccc1)NC(=O)[C@H](CC(N)=O)NC(=O)[C@H](CC(N)=O)NC(=O)[C@H](CO)NC(=O)[C@H](CO)NC(=O)[C@H](CCCCN)NC(=O)[C@H](Cc1c[nH]cn1)NC(=O)[C@H](CC(C)C)NC(=O)[C@H](CCC(=O)O)NC(=O)[C@H](CC(N)=O)NC(=O)[C@H](C)NC(=O)[C@H](CC(C)C)NC(=O)[C@H](CCCNC(=N)N)NC(=O)[C@H](CCC(N)=O)NC(=O)[C@@H](NC(=O)[C@H](C)NC(=O)[C@@H]1CSSC[C@H](NC(=O)[C@@H](N)CCCCNC(=O)CC[C@H](NC(=O)CC[C@H](NC(=O)CCCCCCCCCCCCCCCCCCC(=O)O)C(=O)O)C(=O)O)C(=O)N[C@@H](CC(N)=O)C(=O)N[C@@H]([C@@H](C)O)C(=O)N[C@@H](CO)C(=O)N[C@@H]([C@@H](C)O)C(=O)N1)[C@@H](C)O)C(=O)N[C@@H](CC(C)C)C(=O)N1CCC[C@H]1C(=O)N1CCC[C@H]1C(=O)N[C@H](C(=O)N[C@@H](CCCCN)C(=O)N[C@H](C(=O)NCC(=O)N[C@@H](CO)C(=O)N[C@@H](CCC(=O)O)C(=O)N[C@H](C(=O)N[C@@H](Cc1ccc(O)cc1)C(N)=O)[C@@H](C)O)C(C)C)[C@@H](C)O
B2: Compound A99 (peptide)
peptide: SCNTSTCATQRLANELK([dpeg″-dpeg″-γGlu-C18 diacid])KSSNNFGPILPPTKVGSETY-NH2
modifications: disulfide 2-7; N-terminus assumed
SMILES: CC[C@H](C)[C@H](NC(=O)[C@@H]1CCCN1C(=O)CNC(=O)[C@H](Cc1ccccc1)NC(=O)[C@H](CC(N)=O)NC(=O)[C@H](CC(N)=O)NC(=O)[C@H](CO)NC(=O)[C@H](CO)NC(=O)[C@H](CCCCN)NC(=O)[C@H](CCCCNC(=O)COCCOCNC(=O)COCCOCNC(=O)CC[C@H](NC(=O)CCCCCCCCCCCCCCCCC(=O)O)C(=O)O)NC(=O)[C@H](CC(C)C)NC(=O)[C@H](CCC(=O)O)NC(=O)[C@H](CC(N)=O)NC(=O)[C@H](C)NC(=O)[C@H](CC(C)C)NC(=O)[C@H](CCCNC(=N)N)NC(=O)[C@H](CCC(N)=O)NC(=O)[C@@H](NC(=O)[C@H](C)NC(=O)[C@@H]1CSSC[C@H](NC(=O)[C@@H](N)CO)C(=O)N[C@@H](CC(N)=O)C(=O)N[C@@H]([C@@H](C)O)C(=O)N[C@@H](CO)C(=O)N[C@@H]([C@@H](C)O)C(=O)N1)[C@@H](C)O)C(=O)N[C@@H](CC(C)C)C(=O)N1CCC[C@H]1C(=O)N1CCC[C@H]1C(=O)N[C@H](C(=O)N[C@@H](CCCCN)C(=O)N[C@H](C(=O)NCC(=O)N[C@@H](CO)C(=O)N[C@@H](CCC(=O)O)C(=O)N[C@H](C(=O)N[C@@H](Cc1ccc(O)cc1)C(N)=O)[C@@H](C)O)C(C)C)[C@@H](C)O
B3: Compound A13 (peptide)
peptide: SCNTSTCATQRLANE[dK]([γGlu-γGlu-γGlu-Stearoyl])HKSSNNFGPILPPTKVGSETY-NH2
modifications: disulfide 2-7; N-terminus assumed
SMILES: CCCCCCCCCCCCCCCCCC(=O)N[C@@H](CCC(=O)N[C@@H](CCC(=O)N[C@@H](CCC(=O)NCCCC[C@@H](NC(=O)[C@H](CCC(=O)O)NC(=O)[C@H](CC(N)=O)NC(=O)[C@H](C)NC(=O)[C@H](CC(C)C)NC(=O)[C@H](CCCNC(=N)N)NC(=O)[C@H](CCC(N)=O)NC(=O)[C@@H](NC(=O)[C@H](C)NC(=O)[C@@H]1CSSC[C@H](NC(=O)[C@@H](N)CO)C(=O)N[C@@H](CC(N)=O)C(=O)N[C@@H]([C@@H](C)O)C(=O)N[C@@H](CO)C(=O)N[C@@H]([C@@H](C)O)C(=O)N1)[C@@H](C)O)C(=O)N[C@@H](Cc1c[nH]cn1)C(=O)N[C@@H](CCCCN)C(=O)N[C@@H](CO)C(=O)N[C@@H](CO)C(=O)N[C@@H](CC(N)=O)C(=O)N[C@@H](CC(N)=O)C(=O)N[C@@H](Cc1ccccc1)C(=O)NCC(=O)N1CCC[C@H]1C(=O)N[C@H](C(=O)N[C@@H](CC(C)C)C(=O)N1CCC[C@H]1C(=O)N1CCC[C@H]1C(=O)N[C@H](C(=O)N[C@@H](CCCCN)C(=O)N[C@H](C(=O)NCC(=O)N[C@@H](CO)C(=O)N[C@@H](CCC(=O)O)C(=O)N[C@H](C(=O)N[C@@H](Cc1ccc(O)cc1)C(N)=O)[C@@H](C)O)C(C)C)[C@@H](C)O)[C@@H](C)CC)C(=O)O)C(=O)O)C(=O)O
B4: Compound A27 (peptide)
peptide: SCNTSTCATQRLANE[dK]([γGlu-γGlu-Palmitoyl])HKSSNNFGPILPPTKVGSETY-NH2
modifications: disulfide 2-7; N-terminus assumed
SMILES: CCCCCCCCCCCCCCCC(=O)N[C@@H](CCC(=O)N[C@@H](CCC(=O)NCCCC[C@@H](NC(=O)[C@H](CCC(=O)O)NC(=O)[C@H](CC(N)=O)NC(=O)[C@H](C)NC(=O)[C@H](CC(C)C)NC(=O)[C@H](CCCNC(=N)N)NC(=O)[C@H](CCC(N)=O)NC(=O)[C@@H](NC(=O)[C@H](C)NC(=O)[C@@H]1CSSC[C@H](NC(=O)[C@@H](N)CO)C(=O)N[C@@H](CC(N)=O)C(=O)N[C@@H]([C@@H](C)O)C(=O)N[C@@H](CO)C(=O)N[C@@H]([C@@H](C)O)C(=O)N1)[C@@H](C)O)C(=O)N[C@@H](Cc1c[nH]cn1)C(=O)N[C@@H](CCCCN)C(=O)N[C@@H](CO)C(=O)N[C@@H](CO)C(=O)N[C@@H](CC(N)=O)C(=O)N[C@@H](CC(N)=O)C(=O)N[C@@H](Cc1ccccc1)C(=O)NCC(=O)N1CCC[C@H]1C(=O)N[C@H](C(=O)N[C@@H](CC(C)C)C(=O)N1CCC[C@H]1C(=O)N1CCC[C@H]1C(=O)N[C@H](C(=O)N[C@@H](CCCCN)C(=O)N[C@H](C(=O)NCC(=O)N[C@@H](CO)C(=O)N[C@@H](CCC(=O)O)C(=O)N[C@H](C(=O)N[C@@H](Cc1ccc(O)cc1)C(N)=O)[C@@H](C)O)C(C)C)[C@@H](C)O)[C@@H](C)CC)C(=O)O)C(=O)O
B5: Compound A96 (peptide)
peptide: SCNTSTCATQRLAN[dK]([γGlu-γGlu-dpeg″-C20 diacid])LHKSSNNFGPILPPTKVGSETY-NH2
modifications: disulfide 2-7; N-terminus assumed
SMILES: CC[C@H](C)[C@H](NC(=O)[C@@H]1CCCN1C(=O)CNC(=O)[C@H](Cc1ccccc1)NC(=O)[C@H](CC(N)=O)NC(=O)[C@H](CC(N)=O)NC(=O)[C@H](CO)NC(=O)[C@H](CO)NC(=O)[C@H](CCCCN)NC(=O)[C@H](Cc1c[nH]cn1)NC(=O)[C@H](CC(C)C)NC(=O)[C@@H](CCCCNC(=O)CC[C@H](NC(=O)CC[C@H](NC(=O)COCCOCNC(=O)CCCCCCCCCCCCCCCCCCC(=O)O)C(=O)O)C(=O)O)NC(=O)[C@H](CC(N)=O)NC(=O)[C@H](C)NC(=O)[C@H](CC(C)C)NC(=O)[C@H](CCCNC(=N)N)NC(=O)[C@H](CCC(N)=O)NC(=O)[C@@H](NC(=O)[C@H](C)NC(=O)[C@@H]1CSSC[C@H](NC(=O)[C@@H](N)CO)C(=O)N[C@@H](CC(N)=O)C(=O)N[C@@H]([C@@H](C)O)C(=O)N[C@@H](CO)C(=O)N[C@@H]([C@@H](C)O)C(=O)N1)[C@@H](C)O)C(=O)N[C@@H](CC(C)C)C(=O)N1CCC[C@H]1C(=O)N1CCC[C@H]1C(=O)N[C@H](C(=O)N[C@@H](CCCCN)C(=O)N[C@H](C(=O)NCC(=O)N[C@@H](CO)C(=O)N[C@@H](CCC(=O)O)C(=O)N[C@H](C(=O)N[C@@H](Cc1ccc(O)cc1)C(N)=O)[C@@H](C)O)C(C)C)[C@@H](C)O

Key:
[1] = target: T1, human calcitonin receptor; assay: cell-based or functional assay
[2] = target: T2, human amylin 3 receptor; assay: cell-based or functional assay

| Binder | pEC50 (cAMP accumulation), 0% HSA [1] [pEC50] | pEC50 (cAMP accumulation), 0.1% HSA [1] [pEC50] | pEC50 (cAMP accumulation), 4% HSA [1] [pEC50] | pEC50 (cAMP accumulation), 0% HSA [2] [pEC50] | pEC50 (cAMP accumulation), 0.1% HSA [2] [pEC50] | pEC50 (cAMP accumulation), 4% HSA [2] [pEC50] |
| --- | --- | --- | --- | --- | --- | --- |
| SCNTSTCATQRLAN[dK]([γGlu-γGlu-dpeg″-γGlu-C20 diacid])LHKSSNNFGPILPPTKVGSETY-NH2 (disulfide 2-7) [Compound A100] | 10.5 | 8.1 | 7.1 | 11.1 | 8.8 | 7.6 |
| B1 | 11.2 | 9 | 8.1 | 12 | 10.4 | 9.1 |
| K([γGlu-γGlu-dpeg″-dpeg″-γGlu-C20 diacid])CNTSTCATQRLANELHKSSNNFGPILPPTKVGSETY-NH2 (disulfide 2-7) [Compound A112] | 10.9 | 8.5 | 7.5 | 11.6 | 9.3 | 8 |
| B2 | 10.4 | 8.5 | 7.6 | 10.9 | 9.5 | 8.6 |
| B3 | 11.6 | 10.3 | 8.5 | 12.4 | 11.4 | 10.1 |
| B4 | 11.9 | 10.6 | 9 | 12.8 | 11.8 | 10.4 |
| B5 | 10.8 | 8.5 | 8 | 11.7 | 9.7 | 8.5 |
